Experimental data from patent US20110166062A1 (INDIANA UNIVERSITY RESEARCH AND TECHNOLOGY, published 2011).
Where no end group is shown, it is not given here. [ ]: non-standard residue; d: D form. The star is where a group is joined. C18 fatty acyl = 18 carbon fatty acyl group covalently attached to Lys; PEG 40 kDa = PEG (40 kDa) covalently attached to Cys; Stearoyl = CCCCCCCCCCCCCCCCCC(=O)*; Palmitoyl = CCCCCCCCCCCCCCCC(=O)*; Myristoyl = CCCCCCCCCCCCCC(=O)*; Dab = NCC[C@H](N)C(=O)O; Aib = CC(C)(N)C(=O)O

B1: mt-275 (peptide)
peptide: YXQGTFTSDYSIYLDXQAAXEFVNWLLAGGPSSGAPPPSC
modifications: Orn at position 16; AIB at position 20
B2: mt-276 (peptide)
peptide: Y[Aib]QGTFTSDYSIYLD[Dab]QAA[Aib]EFVNWLLAGGPSSGAPPPSC-NH2
modifications: N-terminus assumed
SMILES: CC[C@H](C)[C@H](NC(=O)[C@H](CO)NC(=O)[C@H](Cc1ccc(O)cc1)NC(=O)[C@H](CC(=O)O)NC(=O)[C@H](CO)NC(=O)[C@@H](NC(=O)[C@H](Cc1ccccc1)NC(=O)[C@@H](NC(=O)CNC(=O)[C@H](CCC(N)=O)NC(=O)C(C)(C)NC(=O)[C@@H](N)Cc1ccc(O)cc1)[C@@H](C)O)[C@@H](C)O)C(=O)N[C@@H](Cc1ccc(O)cc1)C(=O)N[C@@H](CC(C)C)C(=O)N[C@@H](CC(=O)O)C(=O)N[C@@H](CCN)C(=O)N[C@@H](CCC(N)=O)C(=O)N[C@@H](C)C(=O)N[C@@H](C)C(=O)NC(C)(C)C(=O)N[C@@H](CCC(=O)O)C(=O)N[C@@H](Cc1ccccc1)C(=O)N[C@H](C(=O)N[C@@H](CC(N)=O)C(=O)N[C@@H](Cc1c[nH]c2ccccc12)C(=O)N[C@@H](CC(C)C)C(=O)N[C@@H](CC(C)C)C(=O)N[C@@H](C)C(=O)NCC(=O)NCC(=O)N1CCC[C@H]1C(=O)N[C@@H](CO)C(=O)N[C@@H](CO)C(=O)NCC(=O)N[C@@H](C)C(=O)N1CCC[C@H]1C(=O)N1CCC[C@H]1C(=O)N1CCC[C@H]1C(=O)N[C@@H](CO)C(=O)N[C@@H](CS)C(N)=O)C(C)C
B3: mt-310 (peptide)
peptide: Y[Aib]EGTFTSDYSIYLDKQAA[Aib]EFVC(PEG 40 kDa)WLLAGGPSSGAPPPSK(C18 fatty acyl)-NH2
B4: mt-298 (peptide)
peptide: Y[Aib]EGTFTSDYSIYLDKQAA[Aib]EFVC(PEG 40 kDa)WLLAGGPSSGAPPPSK(Palmitoyl)-NH2
B5: mt-309 (peptide)
peptide: Y[Aib]EGTFTSDYSIYLDKQAA[Aib]EFVC(PEG 40 kDa)WLLAGGPSSGAPPPSK(Myristoyl)-NH2
B6: mt-260 (peptide)
peptide: Y[Aib]EGTFTSDYSIYLDKQAA[Aib]EFVNWLLAGGPSSGAPPPSK(Myristoyl)-NH2
B7: mt-274 (peptide)
peptide: Y[Aib]EGTFTSDYSIYLDKQAA[Aib]EFVNWLLAGGPSSGAPPPSC(PEG 40 kDa)-NH2
B8: mt-296 (peptide)
peptide: Y[Aib]EGTFTSDYSIYLDKQAA[Aib]EFVCWLLAGGPSSGAPPPSK(Palmitoyl)-NH2
modifications: N-terminus assumed
SMILES: CCCCCCCCCCCCCCCC(=O)NCCCC[C@H](NC(=O)[C@H](CO)NC(=O)[C@@H]1CCCN1C(=O)[C@@H]1CCCN1C(=O)[C@@H]1CCCN1C(=O)[C@H](C)NC(=O)CNC(=O)[C@H](CO)NC(=O)[C@H](CO)NC(=O)[C@@H]1CCCN1C(=O)CNC(=O)CNC(=O)[C@H](C)NC(=O)[C@H](CC(C)C)NC(=O)[C@H](CC(C)C)NC(=O)[C@H](Cc1c[nH]c2ccccc12)NC(=O)[C@H](CS)NC(=O)[C@@H](NC(=O)[C@H](Cc1ccccc1)NC(=O)[C@H](CCC(=O)O)NC(=O)C(C)(C)NC(=O)[C@H](C)NC(=O)[C@H](C)NC(=O)[C@H](CCC(N)=O)NC(=O)[C@H](CCCCN)NC(=O)[C@H](CC(=O)O)NC(=O)[C@H](CC(C)C)NC(=O)[C@H](Cc1ccc(O)cc1)NC(=O)[C@@H](NC(=O)[C@H](CO)NC(=O)[C@H](Cc1ccc(O)cc1)NC(=O)[C@H](CC(=O)O)NC(=O)[C@H](CO)NC(=O)[C@@H](NC(=O)[C@H](Cc1ccccc1)NC(=O)[C@@H](NC(=O)CNC(=O)[C@H](CCC(=O)O)NC(=O)C(C)(C)NC(=O)[C@@H](N)Cc1ccc(O)cc1)[C@@H](C)O)[C@@H](C)O)[C@@H](C)CC)C(C)C)C(N)=O
B9: mt-307 (peptide)
peptide: Y[Aib]EGTFTSDYSIYLDKQAA[Aib]EFVCWLLAGGPSSGAPPPSK(C18 fatty acyl)-NH2
B10: mt-306 (peptide)
peptide: Y[Aib]EGTFTSDYSIYLDKQAA[Aib]EFVCWLLAGGPSSGAPPPSK(Myristoyl)-NH2
modifications: N-terminus assumed
SMILES: CCCCCCCCCCCCCC(=O)NCCCC[C@H](NC(=O)[C@H](CO)NC(=O)[C@@H]1CCCN1C(=O)[C@@H]1CCCN1C(=O)[C@@H]1CCCN1C(=O)[C@H](C)NC(=O)CNC(=O)[C@H](CO)NC(=O)[C@H](CO)NC(=O)[C@@H]1CCCN1C(=O)CNC(=O)CNC(=O)[C@H](C)NC(=O)[C@H](CC(C)C)NC(=O)[C@H](CC(C)C)NC(=O)[C@H](Cc1c[nH]c2ccccc12)NC(=O)[C@H](CS)NC(=O)[C@@H](NC(=O)[C@H](Cc1ccccc1)NC(=O)[C@H](CCC(=O)O)NC(=O)C(C)(C)NC(=O)[C@H](C)NC(=O)[C@H](C)NC(=O)[C@H](CCC(N)=O)NC(=O)[C@H](CCCCN)NC(=O)[C@H](CC(=O)O)NC(=O)[C@H](CC(C)C)NC(=O)[C@H](Cc1ccc(O)cc1)NC(=O)[C@@H](NC(=O)[C@H](CO)NC(=O)[C@H](Cc1ccc(O)cc1)NC(=O)[C@H](CC(=O)O)NC(=O)[C@H](CO)NC(=O)[C@@H](NC(=O)[C@H](Cc1ccccc1)NC(=O)[C@@H](NC(=O)CNC(=O)[C@H](CCC(=O)O)NC(=O)C(C)(C)NC(=O)[C@@H](N)Cc1ccc(O)cc1)[C@@H](C)O)[C@@H](C)O)[C@@H](C)CC)C(C)C)C(N)=O
B11: mt-308 (peptide)
peptide: Y[Aib]EGTFTSDYSIYLDKQAA[Aib]EFVCWLLAGGPSSGAPPPSK-NH2
modifications: N-terminus assumed
SMILES: CC[C@H](C)[C@H](NC(=O)[C@H](CO)NC(=O)[C@H](Cc1ccc(O)cc1)NC(=O)[C@H](CC(=O)O)NC(=O)[C@H](CO)NC(=O)[C@@H](NC(=O)[C@H](Cc1ccccc1)NC(=O)[C@@H](NC(=O)CNC(=O)[C@H](CCC(=O)O)NC(=O)C(C)(C)NC(=O)[C@@H](N)Cc1ccc(O)cc1)[C@@H](C)O)[C@@H](C)O)C(=O)N[C@@H](Cc1ccc(O)cc1)C(=O)N[C@@H](CC(C)C)C(=O)N[C@@H](CC(=O)O)C(=O)N[C@@H](CCCCN)C(=O)N[C@@H](CCC(N)=O)C(=O)N[C@@H](C)C(=O)N[C@@H](C)C(=O)NC(C)(C)C(=O)N[C@@H](CCC(=O)O)C(=O)N[C@@H](Cc1ccccc1)C(=O)N[C@H](C(=O)N[C@@H](CS)C(=O)N[C@@H](Cc1c[nH]c2ccccc12)C(=O)N[C@@H](CC(C)C)C(=O)N[C@@H](CC(C)C)C(=O)N[C@@H](C)C(=O)NCC(=O)NCC(=O)N1CCC[C@H]1C(=O)N[C@@H](CO)C(=O)N[C@@H](CO)C(=O)NCC(=O)N[C@@H](C)C(=O)N1CCC[C@H]1C(=O)N1CCC[C@H]1C(=O)N1CCC[C@H]1C(=O)N[C@@H](CO)C(=O)N[C@@H](CCCCN)C(N)=O)C(C)C
B12: mt-279 (peptide)
peptide: Y[Aib]QGTFTSDYSIYLDKQAA[Aib]EFVNWLLAGGPSSGAPPPSK(Stearoyl)-NH2
modifications: N-terminus assumed
SMILES: CCCCCCCCCCCCCCCCCC(=O)NCCCC[C@H](NC(=O)[C@H](CO)NC(=O)[C@@H]1CCCN1C(=O)[C@@H]1CCCN1C(=O)[C@@H]1CCCN1C(=O)[C@H](C)NC(=O)CNC(=O)[C@H](CO)NC(=O)[C@H](CO)NC(=O)[C@@H]1CCCN1C(=O)CNC(=O)CNC(=O)[C@H](C)NC(=O)[C@H](CC(C)C)NC(=O)[C@H](CC(C)C)NC(=O)[C@H](Cc1c[nH]c2ccccc12)NC(=O)[C@H](CC(N)=O)NC(=O)[C@@H](NC(=O)[C@H](Cc1ccccc1)NC(=O)[C@H](CCC(=O)O)NC(=O)C(C)(C)NC(=O)[C@H](C)NC(=O)[C@H](C)NC(=O)[C@H](CCC(N)=O)NC(=O)[C@H](CCCCN)NC(=O)[C@H](CC(=O)O)NC(=O)[C@H](CC(C)C)NC(=O)[C@H](Cc1ccc(O)cc1)NC(=O)[C@@H](NC(=O)[C@H](CO)NC(=O)[C@H](Cc1ccc(O)cc1)NC(=O)[C@H](CC(=O)O)NC(=O)[C@H](CO)NC(=O)[C@@H](NC(=O)[C@H](Cc1ccccc1)NC(=O)[C@@H](NC(=O)CNC(=O)[C@H](CCC(N)=O)NC(=O)C(C)(C)NC(=O)[C@@H](N)Cc1ccc(O)cc1)[C@@H](C)O)[C@@H](C)O)[C@@H](C)CC)C(C)C)C(N)=O

Molecular target: glucagon receptor (UniProt P47871 26-477, limits assumed)
Sequence (P47871 26-477 limits assumed): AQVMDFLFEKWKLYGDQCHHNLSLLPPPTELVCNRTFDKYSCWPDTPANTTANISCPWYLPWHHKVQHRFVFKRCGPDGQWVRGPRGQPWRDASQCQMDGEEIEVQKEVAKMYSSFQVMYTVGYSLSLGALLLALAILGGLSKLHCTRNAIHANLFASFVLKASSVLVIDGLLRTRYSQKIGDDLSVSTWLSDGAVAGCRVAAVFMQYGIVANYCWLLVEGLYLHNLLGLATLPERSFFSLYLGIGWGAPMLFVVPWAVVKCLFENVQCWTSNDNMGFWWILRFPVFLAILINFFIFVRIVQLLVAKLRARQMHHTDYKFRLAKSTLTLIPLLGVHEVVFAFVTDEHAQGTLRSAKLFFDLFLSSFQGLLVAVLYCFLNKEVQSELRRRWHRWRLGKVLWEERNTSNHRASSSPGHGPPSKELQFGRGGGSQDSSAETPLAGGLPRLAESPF
Assay: cell-based or functional assay

Binder	EC50	relative activity
B1	0.0671 nM	62.1%
B2	0.0537 nM	77.7%
B3	0.775 nM	8.24%
B4	1.76 nM	3.63%
B5	3.61 nM	1.77%
B6	0.321 nM	–
B7	69.1 nM	0.06%

Molecular target: T1, GIP receptor (UniProt P48546 22-466)
T1 sequence (looked up): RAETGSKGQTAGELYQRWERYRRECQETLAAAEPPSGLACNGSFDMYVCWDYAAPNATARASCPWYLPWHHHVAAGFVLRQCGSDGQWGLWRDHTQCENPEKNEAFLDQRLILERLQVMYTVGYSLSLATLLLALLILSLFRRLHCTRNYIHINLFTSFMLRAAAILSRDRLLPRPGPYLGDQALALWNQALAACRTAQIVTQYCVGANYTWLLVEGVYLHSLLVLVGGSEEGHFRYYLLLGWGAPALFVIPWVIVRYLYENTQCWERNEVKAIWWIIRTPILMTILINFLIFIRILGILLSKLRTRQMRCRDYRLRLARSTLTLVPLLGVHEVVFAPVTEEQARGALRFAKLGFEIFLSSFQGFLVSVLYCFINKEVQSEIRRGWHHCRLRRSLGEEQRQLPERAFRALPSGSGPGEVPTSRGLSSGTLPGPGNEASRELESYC
Assay: cell-based or functional assay

Binder	EC50	relative activity
B1	0.0124 nM	112%
B8	0.0077 nM	–
B2	0.008 nM	174%
B9	0.0127 nM	–
B10	0.0064 nM	–
B3	0.0075 nM	275%
B11	0.0057 nM	–
B4	0.0051 nM	404%
B5	0.0091 nM	226%
B6	0.0018 nM	–
B7	0.035 nM	39.7%
B12	0.0045 nM	–

Molecular target: GLP-1 receptor (UniProt P43220 24-463, limits assumed)
Assay: cell-based or functional assay

Binder	EC50	relative activity
B1	0.0068 nM	104%
B8	0.0124 nM	–
B2	0.0066 nM	108%
B9	0.0143 nM	–
B10	0.0201 nM	–
B3	0.0062 nM	253%
B11	0.0237 nM	–
B4	0.0087 nM	180%
B5	0.0104 nM	151%
B6	0.0068 nM	–
B7	0.0916 nM	7.75%
B12	0.0046 nM	–
